# Values joined by “and” are separate entries in the source; they are usually repeats but may differ in a detail not shown here. Equal values may be shown once. Read-outs that look alike come from different tables or passages of the source. Where no end group is shown, it is not given here. [ ]: non-standard residue; d: D form. Nab = not defined here; Nbn = not defined here
# Key:
# PrP^Sc [1] = biological target: T1, PrP^Sc (Homo sapiens, UniProt P04156); details: Table 15
# PrPc [2] = biological target: T2, PrPc (Homo sapiens, UniProt P04156); assay type: binding
# PrPc [3] = biological target: T2, PrPc; details: for LU, Pulldown, PrPC / pg, Pulldown, PrPC: 3M GdnSCN; for pg, Pulldown, PrPC: rPrP standard curve
# PrPc [4] = biological target: T2, PrPc; details: Table 16
# PrP^Sc [5] = biological target: T1, PrP^Sc; details: folded PrP^Sc pulled down by XIIb
# PrPc [6] = biological target: T2, PrPc; details: Table 15
# PrP^Sc [7] = biological target: T1, PrP^Sc
# [8] = H3PO4 (50 μl) 0.00007M, pH 4, NaOH (25 μl) 0.0031N
# [9] = H3PO4 (50 μl) 0.00075M, pH 3, NaOH (25 μl) 0.031N
# [10] = H3PO4 (50 μl) 0.12M, pH 2, NaOH (25 μl) 0.31N
# [11] = H3PO4 (50 μl) 0.5M, pH 1, NaOH (25 μl) 3.1N
# [12] = NaOH (50 μl) 0.0001M, pH 10, NaH2PO4 (20 μl) 0.0003M
# [13] = NaOH (50 μl) 0.001M, pH 11, NaH2PO4 (20 μl) 0.003M
# [14] = NaOH (50 μl) 0.1M, pH 12, NaH2PO4 (20 μl) 0.03M
# [15] = NaOH (50 μl) 0.1M, pH 13, NaH2PO4 (20 μl) 0.3M
# [16] = 70 ul plasma (70%) + 50 nl 10% normal BH
substance,measurement,setting,value
"Peptoid Reagent XIIb: peptoid reagent comprising SEQ ID NO: 240, Nab-Nab-Nab-Nbn-Nab-Nbn, covalently bound to magnetic beads ([Nab][Nab][Nab][Nbn][Nab][Nbn]; reading uncertain; also: covalently bound to magnetic beads, printed as Nab-Nab-Nab-Nbn-Nab-Nbn)",S/N,"PrP^Sc [1]; 70 μl TBST, pH 7.5",2
same,S/N,"PrP^Sc [1]; H3PO4 0.00007M, pH 4",1
same,S/N,"PrP^Sc [1]; H3PO4 0.00075M, pH 3",1
same,S/N,"PrP^Sc [1]; H3PO4 0.12M, pH 2",1
same,S/N,"PrP^Sc [1]; H3PO4 0.5M, pH 1",9
same,AVE vCJD + Plasma,PrP^Sc [1]; [8],27.0
same,AVE vCJD + Plasma,PrP^Sc [1]; [9],26.6
same,AVE vCJD + Plasma,PrP^Sc [1]; [10],122.5
same,AVE vCJD + Plasma,PrP^Sc [1]; [11],264.0
same,S/N,"PrP^Sc [1]; NaOH 0.0001M, pH 10",0
same,S/N,"PrP^Sc [1]; NaOH 0.001M, pH 11",1
same,S/N,"PrP^Sc [1]; NaOH 0.1M, pH 12",5
same,S/N,"PrP^Sc [1]; NaOH 0.1M, pH 13",30
same,AVE vCJD + Plasma,PrP^Sc [1]; [12],34.8
same,AVE vCJD + Plasma,PrP^Sc [1]; [13],11.8
same,AVE vCJD + Plasma,PrP^Sc [1]; [14],76.1
same,AVE vCJD + Plasma,PrP^Sc [1]; [15],458.1
same,Mean binding,"PrPc [2]; Table 10, 15 nL 10% normal human brain homogenate, 70% human plasma, covalently attached to beads",13.2
same,Mean binding,"PrPc [2]; Table 11, TBSTT with 70% Human Plasma",269.5
same,Mean binding,"PrPc [2]; Table 11, TBSTT with 70% Human Plasma containing 20 nL 10% normal human brain homogenate",306.4
same,"LU, Pulldown, PrPC",PrPc [3]; [16],25.6 LU
same,"pg, Pulldown, PrPC",PrPc [3]; [16],7.3 pg
same,"LU, Pulldown, PrPC",PrPc [3]; 70 ul plasma (70%),23 LU and 23.3 LU
same,"pg, Pulldown, PrPC",PrPc [3]; 70 ul plasma (70%),6.0 pg
same,PrP^C bound by peptoid,PrPc [3]; plasma containing about 488 pg of PrP^C,7 pg
same,AVE Plasma,"PrPc [4]; 50 μl GdnSCN 3M, pH 5.9, 50 μl NaHCO3, final pH 8.5",5.5
same,AVE Plasma,"PrPc [4]; 100 μl TBST, pH 7.5",2.2
same,AVE Plasma,PrPc [4]; [8],8.7
same,AVE Plasma,PrPc [4]; [9],19.9
same,AVE Plasma,PrPc [4]; [10],8.0
same,AVE Plasma,PrPc [4]; [11],11.9
same,AVE Plasma,PrPc [4]; [12],3.1
same,AVE Plasma,PrPc [4]; [13],3.6
same,AVE Plasma,PrPc [4]; [14],5.1
same,AVE Plasma,PrPc [4]; [15],5.2
same,GdnHCl1/2 (GdnHCl concentration at half-maximal denaturation),PrP^Sc [5]; sCJD brain homogenate,2.0 M
same,GdnHCl1/2 (GdnHCl concentration at half-maximal denaturation),PrP^Sc [5]; vCJD brain homogenate,1.6 M
same,AVE Plasma,"PrPc [6]; 15 μl GdnSCN 3M, pH 5.9, 210 μl H20, final pH 6.0",37.7
same,AVE Plasma,"PrPc [6]; 70 μl TBST, pH 7.5",11.8
same,AVE Plasma,PrPc [6]; [8],26.8
same,AVE Plasma,PrPc [6]; [9],25.8
same,AVE Plasma,PrPc [6]; [10],92.7
same,AVE Plasma,PrPc [6]; [11],30.4
same,AVE Plasma,PrPc [6]; [12],197.6
same,AVE Plasma,PrPc [6]; [13],14.6
same,AVE Plasma,PrPc [6]; [14],16.1
same,AVE Plasma,PrPc [6]; [15],15.1
same,"Avg LU, 3F4 Beads",PrP^Sc [7]; vCJD 0 nL BH/asy (background),1.62 LU
same,"Avg LU, C17 Beads",PrP^Sc [7]; vCJD 0 nL BH/asy (background),11.84 LU
same,"S/N, 3F4 Beads",PrP^Sc [7]; vCJD 0 nL BH/asy (background),1.0
same,"S/N, C17 Beads",PrP^Sc [7]; vCJD 0 nL BH/asy (background),1.0
same,"Avg LU, 3F4 Beads",PrP^Sc [7]; vCJD 1 nL BH/asy,3.11 LU
same,"Avg LU, C17 Beads",PrP^Sc [7]; vCJD 1 nL BH/asy,16.53 LU
same,"S/N, 3F4 Beads",PrP^Sc [7]; vCJD 1 nL BH/asy,1.9
same,"S/N, C17 Beads",PrP^Sc [7]; vCJD 1 nL BH/asy,1.4
same,"Avg LU, 3F4 Beads",PrP^Sc [7]; vCJD 5 nL BH/asy,2.25 LU
same,"Avg LU, C17 Beads",PrP^Sc [7]; vCJD 5 nL BH/asy,26.08 LU
same,"S/N, 3F4 Beads",PrP^Sc [7]; vCJD 5 nL BH/asy,1.4
same,"S/N, C17 Beads",PrP^Sc [7]; vCJD 5 nL BH/asy,2.2
same,"S/N, 3F4 Beads",PrP^Sc [7]; vCJD 10 nL BH/asy,1.7
same,"S/N, C17 Beads",PrP^Sc [7]; vCJD 10 nL BH/asy,3.5
same,"Avg LU, 3F4 Beads","PrP^Sc [7]; vCJD 10 nL BH/asy, 3F4 capture, C2-AP detection",2.83 LU
same,"Avg LU, C17 Beads","PrP^Sc [7]; vCJD 10 nL BH/asy, C17 capture, C2-AP detection",41.86 LU
